Assay [1] concerns the target T1, MSR1 on differentiated THP-1 cells (Homo sapiens, UniProt P21757).
T1 construct: endogenously expressed human MSR1; endogenous in cells; host or cells: THP-1 cells treated with 200 nM PMA
T1 sequence (P21757 1-451): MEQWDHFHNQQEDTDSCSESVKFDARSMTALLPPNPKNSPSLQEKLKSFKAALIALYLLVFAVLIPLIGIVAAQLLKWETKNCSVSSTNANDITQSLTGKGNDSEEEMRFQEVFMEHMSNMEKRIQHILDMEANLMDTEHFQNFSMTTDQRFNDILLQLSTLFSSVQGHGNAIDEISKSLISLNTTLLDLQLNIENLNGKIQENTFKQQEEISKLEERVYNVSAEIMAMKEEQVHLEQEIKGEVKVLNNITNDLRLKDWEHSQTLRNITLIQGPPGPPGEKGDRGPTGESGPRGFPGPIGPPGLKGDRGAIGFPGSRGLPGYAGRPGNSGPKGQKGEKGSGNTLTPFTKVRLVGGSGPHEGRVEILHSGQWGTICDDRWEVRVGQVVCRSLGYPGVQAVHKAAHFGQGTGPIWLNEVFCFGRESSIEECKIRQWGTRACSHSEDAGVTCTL
Kind of assay: Binding and internalization of cell-surface expressed MSR1 (confocal imaging). Conditions: 10 μg/mL antibody. It is filed as cell-based. How it is done: The THP-1 cells were allowed to differentiate for 4 days at 37° C. in 5% CO2. […] The remaining two plates were incubated at 37° C. for 1 hour followed by fixation and staining for 20 minutes using a solution of 4% PFA+5 μM DRAQ5 diluted in PBS (internalization plates). After fixation, all plates were washed once with PBS. […] The remaining plates were incubated with PBS only. Confocal images were acquired on the Opera Phenix (Perkin Elmer) at 40× magnification. […] The total binding at 4° C. (RFU values of 4° C. unquenched wells), total binding at 37° C.
For all calculations, background fluorescence from unstained wells was subtracted from every well. Total internalized RFU was calculated as follows: Total RFU of 37° C. unquenched samples—Surface RFU at 37° C. Surface RFU is defined as unquenched RFU at 37° C.-quenched RFU at 37° C.)/QE. QE (quenching efficiency) is defined as: 1-(Total RFU of 4° C. quenched sample/Total RFU of 4° C. unquenched sample). The % Internalization was determined from the following formula: (Total internalized RFU at 37° C./Total RFU at 37° C.)*100.

Assay [2] has as its target T2, human MSR1 extracellular domain (His9-hMSR1) (Homo sapiens, UniProt P21757).
T2 construct: human MSR1 extracellular domain expressed with a N-terminal nonahistidine tag; purchased R&D Systems 2708-MS
T2 sequence (P21757 77-451 limits assumed): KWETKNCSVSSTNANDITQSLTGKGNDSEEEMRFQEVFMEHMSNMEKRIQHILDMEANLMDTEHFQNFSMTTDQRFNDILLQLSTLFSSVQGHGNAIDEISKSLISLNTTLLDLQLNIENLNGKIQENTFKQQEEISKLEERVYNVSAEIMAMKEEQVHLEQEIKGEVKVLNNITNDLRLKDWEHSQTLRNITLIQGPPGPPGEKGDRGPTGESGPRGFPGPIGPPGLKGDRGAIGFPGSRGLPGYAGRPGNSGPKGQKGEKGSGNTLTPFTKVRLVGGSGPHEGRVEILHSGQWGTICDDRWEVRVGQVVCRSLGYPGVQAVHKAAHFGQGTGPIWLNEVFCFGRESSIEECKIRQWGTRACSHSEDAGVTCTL
Briefly: Surface plasmon resonance (Biacore 4000) binding kinetics, antibody-capture format, 25° C. and 37° C. Particulars: analyte His9-hMSR1. As for the experimental part:
(§1) Binding affinities and kinetic constants of human anti-MSR1 antibodies for different MSR1 reagents were determined by real-time surface plasmon resonance (Biacore 4000). All binding studies were performed in 10 mM HEPES, 150 mM NaCl, 3 mM EDTA, and 0.05% v/v Surfactant Tween-20, pH 7.4 (HBS-ET) running buffer at 25° C. and 37° C.
(§2) The association rate (ka) and dissociation rate (kd) were determined by fitting the real-time binding sensorgrams to a 1:1 binding model with mass transport limitation using Scrubber 2.0 c curve-fitting software. Binding dissociation equilibrium constant (KD) and dissociative half-life (t½) were calculated from the kinetic rates as: […]

Assay [3] relates to monkey MSR1 extracellular domain (HMM-mfMSR1). Described as above. Particulars: analyte HMM-mfMSR1. As for the experimental part:
as §1, §2

The test system of assay [4] is S. aureus MRSA strain NRS384. Kind of assay: S. aureus IV disseminated infection mouse model (humanized MSR1 mice), kidney burden. Conditions: with vancomycin; for # of mice with S. aureus below the limit of detection: limit of detection = 250 cfu. The assay is classed as in vivo, Staphylococcus aureus. As for the experimental part:
To test the efficacy of an anti-MSR1 Ab-antibiotic ncADC according to the disclosure in vivo, an intravenous disseminated infection model was utilized. S. aureus MRSA strain NRS384 was grown overnight in trypic soy broth (TSB) and sub-cultured to mid-logarithmic phase. Bacteria were then washed twice with PBS and resuspended in PBS at a concentration of 1.2×10^8 cfu/mL. […] From one to three days post infection, mice were treated with 110 mg/kg vancomycin subcutaneously twice daily wherein indicated. […] Mice were monitored for weight loss and body conditioning score throughout the infection. At four days post infection, mice were euthanized and the S. aureus kidney burden was quantified by tissue homogenization followed by enumeration of colony forming units through serial dilution in PBS and plating onto trypicase soy agar plates.

Where [5] appears, read: 37° C., antibody-capture format.
The mark [6] stands for this setting: 37° C., antibody-capture format, * = no dissociation observed, kd manually fixed at 1.00E−05.
[7] abbreviates: Biacore, 25° C., * no dissociation observed, kd fixed at 1.00E−05.
Setting [8] is: mAb or conjugate dose 0.1 mg/kg.

Sequence of monkey MSR1 extracellular domain (HMM-mfMSR1) (as listed by the source): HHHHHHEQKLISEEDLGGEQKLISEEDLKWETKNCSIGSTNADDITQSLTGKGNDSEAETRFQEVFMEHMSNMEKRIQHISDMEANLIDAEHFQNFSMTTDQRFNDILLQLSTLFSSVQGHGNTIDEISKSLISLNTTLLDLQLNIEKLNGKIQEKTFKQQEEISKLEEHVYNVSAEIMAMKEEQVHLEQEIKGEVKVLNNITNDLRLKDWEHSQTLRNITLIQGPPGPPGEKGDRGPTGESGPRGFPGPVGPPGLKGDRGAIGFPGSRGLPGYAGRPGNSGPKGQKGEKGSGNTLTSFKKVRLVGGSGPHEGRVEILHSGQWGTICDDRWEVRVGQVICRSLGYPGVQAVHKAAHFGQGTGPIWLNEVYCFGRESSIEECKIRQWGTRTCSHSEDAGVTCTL

B1: H1H21234N-N297Q: "An anti-MSR1 antibody H1H21234N containing a N297Q mutation, which eliminates N-linked glycosylation of the Fc at this site" (antibody, V domains shown)
VH: QVQLQESGPGLVKPSETLSLTCTVTGGSISRNYWSWIRQPPGKGLEWIGYIYYSGSIDYNPSLKSRVTISVDTSKNQFSLKLSSMTAADTAVYYCARDRWNWKYGMDVWGQGTTVIVSS
VL: EIVLTQSPGTLSLSPGERATLSCRASQTVRNNYLAWYHQKPGQAPRLLIYGASSRATGIPDRFSGSGSGTDFTLTISRLEPEDFTVYYCHQYGNSPWTFGQGTKMEIKR
Regarding B1, the “Total Binding at 4° C.” value in assay [1] (4° C.) came out at 1953248. In addition, the “% Internalization” value in assay [1] (37° C.) is given as 13.3%. The “Total Binding at 37° C.” value in assay [1] (37° C.) came out at 5451125. Also, in assay [1] (37° C.), the “Total Internalized RFU” value turned out to be 722651 RFU. The ka worked out at 787000 M⁻¹ s⁻¹ in assay [2] (setting [5]); 497000 M⁻¹ s⁻¹ in assay [2] (Biacore, 25° C.); 750000 M⁻¹ s⁻¹ in assay [3] (setting [5]); 408000 M⁻¹ s⁻¹ in assay [3] (Biacore, 25° C.). Further, the kd in assay [2] (setting [6]) is 1.00E−05* s^−1; in assay [2] (setting [7]), 1.00E−05* s^−1; in assay [3] (setting [6]), 1.00E−05* s^−1; in assay [3] (setting [7]), 1.95e-05 s⁻¹. The Average cfu/kidney pair in assay [4] (setting [8]) is 2.43E+05 cfu/kidney pair; in assay [4] (mAb or conjugate dose 1 mg/kg), 1.55E+05 cfu/kidney pair. For the same molecule, the “# of mice with S. aureus below the limit of detection” value in assay [4] (setting [8]) is recorded as 0/6; in assay [4] (mAb or conjugate dose 1 mg/kg), 4/8.

The values above are taken from patent US11666658B2, “Rifamycin analogs and antibody-drug conjugates thereof” (Regeneron Pharmaceuticals, Inc., priority 2018, dated 2023).
